Data from PMC2148214 (The Journal of Cell Biology, 1999).

Target: the molecule itself
Assay: velocity gradient sedimentation

B1: wild-type HTLV-1 envelope precursor glycoprotein (natural protein, UniProt P03381 21-488, looked up)
chain: DYSPSCCTLTIGVSSYHSKPCNPAQPVCSWTLDLLALSADQALQPPCPNLVSYSSYHATYSLYLFPHWTKKPNRNGGGYYSASYSDPCSLKCPYLGCQSWTCPYTGAVSSPYWKFQHDVNFTQEVSRLNINLHFSKCGFPFSLLVDAPGYDPIWFLNTEPSQLPPTAPPLLPHSNLDHILEPSIPWKSKLLTLVQLTLQSTNYTCIVCIDRASLSTWHVLYSPNVSVPSSSSTPLLYPSLALPAPHLTLPFNWTHCFDPQIQAIVSSPCHNSLILPPFSLSPVPTLGSRSRRAVPVAVWLVSALAMGAGVAGGITGSMSLASGKSLLHEVDKDISQLTQAIVKNHKNLLKIAQYAAQNRRGLDLLFWEQGGLCKALQEQCRFPNITNSHVPILQERPPLENRVLTGWGLNWDLGLSQWAREALQTGITLVALLLLVILAGPCILRQLRHLPSRVRYPHYSLIKPESSL
stoichiometry N: 2
